Test results from the Human Domainome abundance scans (Beltran et al. 2025).

B1: E3 ubiquitin-protein ligase NEDD4-like, residues 539 to 589; numbered along this chain, Q96PU5 (parent)
chain: KTSLNPNDLGPLPPGWEERIHLDGRTFYIDHNSKITQWEDPRLQNPAITGP

Variants of: B1
Assay: abundance fitness (aPCA) (normalised: wild type 0, dead -1); higher = more abundant; growth selection in yeast, the domain comes from the species named
Details: Homo sapiens

Abundance fitness: each site, then its substitutions
G15: P -0.471, R -0.498, T -0.526, D -0.471, H -0.407, I -0.429, E -0.425, M -0.406, Y -0.53, N -0.018, S -0.394, K -0.447, L -0.622, F -0.491, Q -0.321, A -0.361, C -0.442
E17: K -0.571, Y -0.986, M -0.821, L -0.856, T -0.628, R -0.746, F -0.753, D -0.606, Q -0.361, I -0.432, P -0.877, C -0.457, N -0.61, A -0.705, H -0.157, S -0.246, V -0.477
T26: L -0.136, R -0.011, I -0.131, P -0.051, A -0.065, M -0.125, N -0.187, F -0.287, D -0.635, H 0.084, C -0.065, E -0.403, K 0.056, Q -0.284
P11: T -0.127, R -0.168, A 0.022, F -0.426, E -0.044, Y -0.601, I -0.322, W -0.613, D -0.025, V -0.221, H -0.586, N -0.177, G -0.19, L -0.41, M -0.232, C -0.178
D23: P -0.445, A -0.779, V -0.876, I -0.725, C -0.135, K -0.333, T -0.031, H -0.593, N -0.064, F -1.12, R -0.645, E -0.584, G -0.388, M -0.5, Q -0.252, S -0.036, Y -0.715, L -0.548
I20: G -0.289, P -0.226, R -0.006, C 0.192, L -0.024, Q -0.148, S 0.047, W -0.228, N -0.467, F -0.246, Y -0.164, E 0.022, K 0.209, V 0.093, M -0.131, A -0.069, H -0.125
P14: K -0.044, H -0.159, M -0.256, Y -0.066, Q -0.17, S -0.042, N -0.355, L -0.204, W -0.433, R -0.085, I -0.227, D 0.023, G -0.205, A 0.008, C -0.1, V -0.122, E 0.009, T -0.118, F -0.066
E18: W -0.962, L -0.802, F -0.736, G -0.503, K -0.274, I -0.796, C -0.252, M -0.444, Q 0, P -0.48, V -0.322, T -0.27, R -0.159, Y -0.417, A -0.071, H -0.68
L22: F -0.23, C -0.219, M 0.013, T 0.141, Q 0.152, P 0.246, V 0.089, A 0.156, Y 0.07, S 0.154, G 0.085, R 0.052, I -0.107, W -0.167, N -0.247, D 0.048, K 0.206
R25: Y -0.569, L -0.598, F -0.568, W -0.72, V -0.54, A -0.301, M -0.48, C -0.393, T -0.068, Q -0.187, E -0.198, I -0.757, N -0.164, S -0.063, H -0.382, P -0.558, G -0.265, D -0.287
N7: T -0.007, R -0.041, F -0.11, Y -0.395, Q -0.137, S -0.042, V -0.114, L -0.212, W -0.4, G 0.005, H -0.146, M -0.02, D 0.044, E 0.001, P -0.05, I -0.169, A -0.01, K -0.063
P13: N -0.437, Y -0.023, S -0.605, T -1, E -0.506, D -0.322, K -0.559, M -0.799, R -0.698, Q -0.585, A -0.495, L -0.745, V -1.1, H -1.04, C -0.766, I -0.933, F -0.616
L12: V -0.568, R -0.864, G -1.2, M -0.121, T -0.427, S -0.695, I -0.488, P -0.62, Q -0.773, C -0.824, F -0.088, E -0.563, W -0.72, A -0.627, H -0.863, Y -0.788, N -0.534, D -0.736
D8: A -0.138, L -0.304, N 0.013, F -0.321, P -0.218, Q -0.189, M -0.307, H -0.194, W -0.466, K -0.022, C 0.033, I -0.189, R -0.034, S -0.147
R19: D -0.421, E -0.192, N -0.368, K -0.198, I -0.181, Q -0.361, M -0.233, P -0.969, V -0.155, L -0.354, G -0.175, F -0.28, S -0.132, H -0.423, A -0.283, Y -0.216, T -0.342, C -0.138
L9: V -0.347, S -0.237, F -0.271
W16: M -0.46, T -0.565, L -0.509, A -0.342, N -0.222, Q -0.388, C -0.502, E -0.393, H -0.386, S -0.471, K -0.29, R -0.408, I -0.684, Y -0.41, G -0.223, P -0.385, D -0.353
H21: S 0.221, F -0.439, G 0.166, K -0.178, I -0.478, N -0.244, C 0.057, R -0.149, P -0.693, T 0.087, V -0.296, E -0.052, Y -0.151, L -0.289, W -0.051, M -0.124, D 0.101, A 0.102
G10: D -0.24, I -0.508, W -0.433, H -0.53, A -0.076, Y -0.571, R -0.263, L -0.429, C -0.28, S -0.268, T -0.15, Q -0.276, N 0.139, P -0.347, V -0.181, M -0.485, K -0.238
G24: I -1.12, M -1.08, S -0.531, K -0.53, F -1.35, W -1.07, V -1.03, N -0.639, C -0.917, R -0.56, E -0.719, P -1.14, L -0.938, A -0.608, Q -0.705, Y -0.76
P6: W -0.176, K 0.146, M 0.112, Q -0.199, Y -0.105, R 0.015, T 0.144, S 0.156, N 0.374
